Publication PMC8618880, “Discovery of GOT1 Inhibitors from a Marine-Derived Aspergillus terreus That Act against Pancreatic Ductal Adenocarcinoma” (Marine Drugs, 2021)

Biological target: the molecule itself
Experiment: crystal structure; GOT1 (16 mg/mL) mixed with 40 uM AH, sitting-drop vapor diffusion, 18 °C, 0.1 M HEPES pH 7.5, 12% w/v PEG 3350; 2.6 Å; two subunits (chains A and B) form the dimer

B1: glutamic oxaloacetate transaminase 1 (GOT1) (enzyme, human)
chain: PPSVFAEVPQAQPVLVFKLTADFREDPDPRKVNLGVGAYRTDDCHPWVLPVVKKVEQKIANDNSLNHEYLPILGLAEFRSCASRLALGDDSPALKEKRVGGVQSLGGTGALRIGADFLARWYNGTNNKNTPVYVSSPTWENHNAVFSAAGFKDIRSYRYWDAEKRGLDLQGFLNDLENAPEFSIVVLHACAHNPTGIDPTPEQWKQIASVMKHRFLFPFFDSAYQGFASGNLERDAWAIRYFVSEGFEFFCAQSFSKNFGLYNERVGNLTVVGKEPESILQVLSQMEKIVRITWSNPPAQGARIVASTLSNPELFEEWTGNVKTMADRILTMRSELRARLEALKTPGTWNHITDQIGMFSFTGLNPKQVEYLVNEKHIYLLPSGRINVSGLTTKNLDYVATSIHEAVTKIQ
modifications: in the crystal: C17 atom of AH covalently linked to the N atom of Lys259 in chain A; PLP in chain B
notes: GOT1, expression construct pET26b-got1; Domains described in the structure span residues 17-411; also called WT-GOT1; glutamic-oxaloacetic transaminase 1; source: E. coli BL21 (DE3), purified (HisTrap FF, Resource Q, Superdex200 Increase)
binding result: binds
